Laboratory results: patent US20200164071A1 (GENSUN BIOPHARMA, published 2020)
Each block holds one binder with its values, some of them ahead of it.

Columns and labels:
[1] = target: T1, human TIGIT on CHO-K1 cells (human, UniProt Q495A1 23-244); assay: flow cytometry competition with biotinylated hPVR-mIg on CHO-K1 cells expressing human TIGIT
T1 construct: also called hu TIGIT; TIGIT+CHO-K1 cells
T1 sequence: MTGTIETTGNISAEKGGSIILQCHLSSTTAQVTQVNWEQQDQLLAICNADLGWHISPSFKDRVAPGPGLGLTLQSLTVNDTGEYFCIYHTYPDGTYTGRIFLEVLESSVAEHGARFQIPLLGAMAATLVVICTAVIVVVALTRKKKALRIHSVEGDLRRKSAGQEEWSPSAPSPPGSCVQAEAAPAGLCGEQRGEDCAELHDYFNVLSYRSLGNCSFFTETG
Procedure: The cells were washed 2 times before staining with PE streptavidin (BioLegend) for 20 min at 4 C. The cells were then washed, resuspended in 30 μl 7 AAD solution, and 35 μl of 10% neutral buffered formalin solution was added. The cells were then incubated for 15 min. Flow cytometry was performed and IC50 was calculated using iQue intellicyt system.

[2] = target: T2, human PD-1 on CHO-K1 cells (human, UniProt Q15116 25-288); assay: flow cytometry blocking assay: FITC human PD-L1-Fc on human PD-1 CHO-K1 cells (Example 11; the legend paragraph 42 calls it binding to hu PD-L1)
T2 construct: also called Human PD-1 transfected CHO-K1 cells
Procedure: (§1) Human or Cyno PD-1 transfected CHO-K1 cells were washed with FACS buffer (0.5% BSA 2 mM EDTA in PBS) and re-suspended at a concentration of 10⁶ cells/ml. […] The cells were then washed and re-suspended in 30 μl 7 AAD solution; 35 μl 10% neutral buffered formalin solution was then added and incubated for 15 mins. before analysis using the iQue intellicyt system.

[3] = target: T3, cyno PD-1 on CHO-K1 cells (cyno); assay: flow cytometry blocking assay of Example 11, PD-L1 on cyno PD-1 CHO-K1 cells; cyno taken from the legend paragraph 42 ('cyno-hu'), while Example 11 speaks of human PD-1 and human PD-L1 for this figure
T3 construct: whole, on cells; also called cyno hu PD-1; Cyno PD-1 transfected CHO-K1 cells
Procedure: as §1

[4] = target: T2, human PD-1 on CHO-K1 cells; assay: flow cytometry blocking assay: FITC human PD-L1-Fc on human PD-1 CHO-K1 cells (Examples 11 and 16); title: Blocking PD-L1 binding to PD-1
Procedure: as §1

[5] = target: T1, human TIGIT on CHO-K1 cells; assay: flow cytometry blocking assay: PVR (hPVR-mIg, m14, by Examples 4 and 6) on human TIGIT CHO-K1 cells (Example 16); title: Blocking PVR binding to TIGIT
[6] = target: T2, human PD-1 on CHO-K1 cells; assay: flow cytometry blocking assay: FITC human PD-L1-Fc on human PD-1 CHO-K1 cells (Example 11)
Procedure: as §1

[7] = target: T4, His tagged human PD-1 protein (human, UniProt Q15116 25-170, limits assumed); assay: bio-layer interferometry (Octet RED96), antibody on anti-human IgG capture biosensors, His tagged human PD-1 as analyte, 1:1 global fit (Example 12)
T4 construct: also called huPD-1-His; not shown: His tag
Procedure: […] was carried out using the Octet RED96 system (ForteBio Octet RED96 System) to characterize the binding kinetics of antibodies against His tagged human PD-1 protein. 20 nM of antibody was loaded onto the anti-human IgG capture biosensors. Association of analyte (His tagged human PD-1 protein) was observed by placing the biosensors in wells containing 2 or 3 fold serial dilution of analytes (72 nM being the highest concentration) for 5 mins. Dissociation was measured after transfer of the biosensors into kinetic buffer alone and monitoring of the interferometry signal for 10 minutes. The observed on and off rates (Ka and Kd) were fit using a 1:1 binding global fit model comprising at least 5 concentrations tested, and the equilibrium binding constant KD was then calculated.

T4 sequence (Q15116 25-170 limits assumed): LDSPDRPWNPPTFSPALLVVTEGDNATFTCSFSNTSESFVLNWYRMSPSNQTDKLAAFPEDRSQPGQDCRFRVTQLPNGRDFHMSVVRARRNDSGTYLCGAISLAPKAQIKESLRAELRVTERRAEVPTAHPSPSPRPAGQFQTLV
T2 sequence (Q15116 25-288): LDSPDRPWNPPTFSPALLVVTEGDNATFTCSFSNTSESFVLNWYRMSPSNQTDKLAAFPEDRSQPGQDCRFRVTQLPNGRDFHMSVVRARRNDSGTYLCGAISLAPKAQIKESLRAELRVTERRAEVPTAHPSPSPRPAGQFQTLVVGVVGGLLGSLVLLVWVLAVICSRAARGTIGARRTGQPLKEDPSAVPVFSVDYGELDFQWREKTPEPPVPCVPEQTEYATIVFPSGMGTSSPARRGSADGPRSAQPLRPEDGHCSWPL

IC50 [1]: 0.5 nM
B3: T-07 (antibody, V domains shown)
VH: EVQLQESGPGLVKPSDTLSLTCAVSGYSITSDSAWNWIRQPPGKGLEWIGYITYSGSTNYNPSLRSRVTMSVDTSKNQFSLKLSSVTAVDTAVYYCTRRQVGLGFAYWGQGTLVTVSA
VL: DIQMTQSPSSLSASVGDRVTITCKASQDVSTAVAWYQQKPGKAPKLLIYSASYRFTGAPSRFSGSGSGTDFTLTISSLQPEDFGIYYCQHHYSTPWTFGGGTKLEFK
notes: Anti-human TIGIT monoclonal antibody from mouse hybridoma; also called anti-hu TIGIT mab T-07

IC50 [1]: 0.84 nM
B4: T-06 (antibody, V domains shown)
VH: QVQLQESGPGLVKPSQTLSLTCTVSGGSVSSDYAWNWIRQPPGKGLEWIGYITYSGSTSYNPSLKSRVTISVDTSKNQFSLKLSSVTAADTAVYYCARRQVGLGFAYWGQGTLVTVSA
VL: DIQMTQSPSSLSASVGDRVTITCKASQDVSTAVAWYQQKPGKAPKLLIYSASYHYTGVPSRFSGSGSGTDFTLTISSLQPEDFATYYCQQHYSTPWTFGGGTKLEIK
notes: Anti-human TIGIT monoclonal antibody from mouse hybridoma; also called anti-hu TIGIT mab T-06

IC50 [4]: 1.8 nM
IC50 [5]: 0.21 nM
B7: TP-M8T10P1 (TP-83) (bispecific antibody)
heavy: QVQLVQSGAEVKKPGASVKVSCKASGYTFTSYYMHWVRQAPGQGLEWMGIINPSGGRTSYAQMFQGRVTMTRDTSTSTVYMELSSLRSEDTAVYYCARDREEQWPVGGFDYWGQGTLVTVSS
light: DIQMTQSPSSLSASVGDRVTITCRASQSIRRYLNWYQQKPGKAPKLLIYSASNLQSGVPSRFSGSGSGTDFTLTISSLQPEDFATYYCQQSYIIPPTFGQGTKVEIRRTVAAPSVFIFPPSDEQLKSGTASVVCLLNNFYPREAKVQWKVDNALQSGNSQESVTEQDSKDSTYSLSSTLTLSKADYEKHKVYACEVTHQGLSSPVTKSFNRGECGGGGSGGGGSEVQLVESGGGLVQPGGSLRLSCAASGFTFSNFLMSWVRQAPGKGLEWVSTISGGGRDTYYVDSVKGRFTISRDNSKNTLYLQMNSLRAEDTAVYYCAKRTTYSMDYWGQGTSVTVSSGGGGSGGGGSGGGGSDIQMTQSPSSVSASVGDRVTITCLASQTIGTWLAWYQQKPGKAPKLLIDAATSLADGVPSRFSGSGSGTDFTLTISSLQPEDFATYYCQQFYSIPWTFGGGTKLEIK
notes: Anti-TIGIT x anti-PD-1; The tie is in embodiment wording ('about 80% to about 100% homologous to')

IC50 [5]: 0.4 nM
B8: TP-M10T8P5 (TP-92) (bispecific antibody, human IgG4 S228P)
heavy: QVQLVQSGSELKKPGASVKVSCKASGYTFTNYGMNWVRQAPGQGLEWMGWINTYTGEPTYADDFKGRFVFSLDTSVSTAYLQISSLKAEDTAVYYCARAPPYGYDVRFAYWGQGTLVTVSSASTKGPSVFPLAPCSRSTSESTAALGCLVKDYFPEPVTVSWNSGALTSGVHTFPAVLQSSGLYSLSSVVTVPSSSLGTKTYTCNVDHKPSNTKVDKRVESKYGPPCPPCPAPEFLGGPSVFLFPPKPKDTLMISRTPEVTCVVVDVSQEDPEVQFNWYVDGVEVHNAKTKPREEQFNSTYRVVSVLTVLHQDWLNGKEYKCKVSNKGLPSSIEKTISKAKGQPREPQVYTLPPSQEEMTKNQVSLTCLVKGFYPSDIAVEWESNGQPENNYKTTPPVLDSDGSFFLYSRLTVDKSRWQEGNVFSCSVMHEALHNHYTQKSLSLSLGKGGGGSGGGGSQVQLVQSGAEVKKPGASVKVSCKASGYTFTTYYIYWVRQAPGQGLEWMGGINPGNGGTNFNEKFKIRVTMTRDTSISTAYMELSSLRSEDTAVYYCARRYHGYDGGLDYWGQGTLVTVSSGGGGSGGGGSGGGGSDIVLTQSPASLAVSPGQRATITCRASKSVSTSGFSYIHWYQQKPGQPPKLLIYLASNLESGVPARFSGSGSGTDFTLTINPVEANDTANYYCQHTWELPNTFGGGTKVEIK
light: DVVMTQSPLSLPVTLGQPASISCRSSQSIVHSNGNTYLEWFQQRPGQSPRVLIYKVSDRFSGVPDRFSGSGSGTDFTLKISRVEAEDVGVYYCFQGSHVPWTFGRGTKLEIK
notes: as for B7

IC50 [4]: 1.4 nM
IC50 [5]: 0.4 nM
B9: TP-M9T10P1 (TP-93) (bispecific antibody, human IgG4 S228P, kappa)
heavy: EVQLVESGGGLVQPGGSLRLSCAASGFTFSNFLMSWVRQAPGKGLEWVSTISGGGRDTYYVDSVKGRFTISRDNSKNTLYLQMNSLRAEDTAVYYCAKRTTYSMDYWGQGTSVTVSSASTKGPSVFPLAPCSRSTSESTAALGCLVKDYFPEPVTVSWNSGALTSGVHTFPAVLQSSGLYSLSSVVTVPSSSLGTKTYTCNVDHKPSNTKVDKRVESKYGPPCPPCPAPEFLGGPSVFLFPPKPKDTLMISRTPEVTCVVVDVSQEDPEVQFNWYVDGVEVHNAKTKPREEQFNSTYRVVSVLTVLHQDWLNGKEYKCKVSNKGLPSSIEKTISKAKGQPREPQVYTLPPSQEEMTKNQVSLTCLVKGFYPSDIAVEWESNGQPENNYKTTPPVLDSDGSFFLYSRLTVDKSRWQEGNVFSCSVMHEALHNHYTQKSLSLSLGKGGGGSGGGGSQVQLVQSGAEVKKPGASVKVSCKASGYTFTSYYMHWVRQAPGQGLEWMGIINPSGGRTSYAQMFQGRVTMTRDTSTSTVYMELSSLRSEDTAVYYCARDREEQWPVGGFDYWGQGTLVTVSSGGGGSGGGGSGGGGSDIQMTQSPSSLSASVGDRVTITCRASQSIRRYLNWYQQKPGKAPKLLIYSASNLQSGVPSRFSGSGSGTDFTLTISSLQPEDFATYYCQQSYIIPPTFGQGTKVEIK
light: DIQMTQSPSSVSASVGDRVTITCLASQTIGTWLAWYQQKPGKAPKLLIDAATSLADGVPSRFSGSGSGTDFTLTISSLQPEDFATYYCQQFYSIPWTFGGGTKLEIKRTVAAPSVFIFPPSDEQLKSGTASVVCLLNNFYPREAKVQWKVDNALQSGNSQESVTEQDSKDSTYSLSSTLTLSKADYEKHKVYACEVTHQGLSSPVTKSFNRGEC
notes: as for B7

IC50 [1]: 0.36 to 0.42 nM
B12: T-09 (antibody, V domains shown)
VH: QVTLKESGPTLVKPTQTLTLTCTFSGFSLSTFAMGVGWIRQPPGKALEWLAHIWWDDDKYYNPALKSRLTITKDTSKNQVVLTMTNMDPVDTATYYCARMDYSYFAWFAYWGQGTLVTVSS
VL: QAVVTQEPSLTVSPGGTVTLTCRSSTGAVTTSNYANWVQQKPGQLFRGLIGGTNNRAPWVPARFSGSLIGDKAALTLSGVQPEDEAEYFCALWYSNHWVFGGGTKLTVL
notes: Anti-human TIGIT monoclonal antibody from mouse hybridoma; also called anti-hu TIGIT mab T-09

More lines, now with the values behind:

B1: T-05 (antibody, V domains shown)
VH: EVQLKQSGAEVKKPGATVKISCKVSGYTFTDQAIHWVQQAPGKGLEWMGYIYPRDGSTKYNETFKGRVTITADTSTDTAYMELSSLRSEDTAVYFCARGMLRWFAYWGQGTLVTVSS
VL: DIQMTQSPSSLSASVGDRVTITCKASQDVSTAVAWYQQKPGKAPKLLIYSASYRYTGVPSRFSGSGSGTDFTLTISSLQPEDFATYYCQQHYSTPLTFGAGTKLELK
notes: Anti-human TIGIT monoclonal antibody from mouse hybridoma; also called anti-hu TIGIT mab T-05
IC50 [1]: 0.2 to 0.46 nM

B2: T-03 (antibody, V domains shown)
VH: EVQLVQSGAEVKKPGATVKISCKVSGYTFTDHTIHWVQQAPGKGLEWMGYFYPRDGSTKYNEKFKGRVTITADTSTDTAYMELSSLRSEDTAVYYCATGMLRWFADWGQGTLITVSV
VL: DIQMTQSPSSLSASVGDRVTITCKASQDVSTTVAWYQQKPGKAPKLLIYSASYRYTGVPSRFSGSGSGTDFTLTISSLQPEDFATYYCQQHYSTPLTFGAGTKLELK
notes: Anti-human TIGIT monoclonal antibody from mouse hybridoma; also called anti-hu TIGIT mab T-03
IC50 [1]: 0.26 to 0.52 nM

B5: T-02 (antibody, V domains shown)
VH: QVKLQESGPGLVKPSQTLSLTCTVTGYSITSDYAWNWIRQPPGKGLEWIGYITYSGGTSYNPSLKSRVTISVDTSKNQFSLKLSSVTAADTAVYSCARRQIGLGFTYWGQGTLVTVSA
VL: DIQMTQSPSSLSASVGDRVTIPCKASQDLSTAVAWYQQKPGKAPKLLIYSSSYRYTGVPSRFSGSGSGTDFTLTISSLQPEDFATYYCQQSYSTPQQHYSTPWTFGEGTKLEIK
notes: Anti-human TIGIT monoclonal antibody from mouse hybridoma; also called anti-hu TIGIT mab T-02
IC50 [1]: 0.35 to 0.71 nM

B6: PD-06 (antibody, V domains shown)
VH: QVQLVQSGAEVKKPGASVKVSCKASGYTFTSYYIHWVRQAPGQRLEWMGWIFPGSGNSKYNENFKGRVTITRDTSASTAYMELSSLRSEDTAVYFCASETYDYGDYWGQGTLVTVSS
VL: DIQMTQSPSSLSASVGDRVTITCKASQNVGTNVAWYQQKPGKAPKSLIYSASYRYSGVPSRFSGSGSGTDFTLTISSLQPEDFATYFCQQYYSYPYTFGQGTKLEIK
notes: also called anti-PD-1 mab PD-06
IC50 [2]: 0.65 nM
IC50 [3]: 2.14 nM

B10: PD-02 mab (antibody, V domains shown)
VH: QVQLVQSGAEVKKPGASVKVSCKASDYTFTNSYLYWLRQAPGQGLEWMGGINPSNGGTNFNEKFKTRTTSTRDTSISTAYMELSRLRSDDTVVYYCTRRDYNYDGGFDSWGQGTLVTVSS
VL: DIQMTQSPSSLSASVGDRVTFTCRASSTLYSNYLHWYQQKPGKAPKLLIYRASFLASGVPSRFSGSGSGTDFTLTISSLQPEDFATYYCQQGSSIPLTFGGGTKVEIK
IC50 [6]: 2.05 nM
IC50 [2]: 0.54 nM
Kd [7]: 3.7 nM
koff [7]: 0.000395 s⁻¹
kon [7]: 106000 M⁻¹ s⁻¹
IC50 [3]: 1.72 nM

B11: PD-04 (antibody, V domains shown)
VH: QVQLVQSGAEVKKPGASVKVSCKASDYTFTNSYIYWVRQAPGQGLEWMGGINPSNGGTNFNEKFKTRVTSTRDTSISTAYMELSRLRSDDTVVYYCARRDYNYDGGFDSWGQGTLVTVSS
VL: DIQMTQSPSSLSASVGDRVTFTCRASSSLYSNYLHWYQQKPGKAPKLLIYRASFLASGVPSRFSGSGSGTDFTLTISSLQPEDFATYYCQQGSSIPLTFGGGTKVEIK
notes: also called anti-PD-1 mab PD-04
IC50 [2]: 0.82 nM
IC50 [3]: 2.15 nM
